Consider 30 sequences from the nanobody polyreactivity screen of Harvey et al. (2022).

The data set in a line: yeast display, Sf9 membrane polyspecificity reagent, FACS + sequencing; frameworks hold sequencing errors. A digest of the protocol:
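In a synthetic yeast display library (Saccharomyces cerevisiae BJ5465), nanobody expression was induced with galactose for 36–48 hours. FACS gates were set low and high (top ~1%) using anti-HA fluorescence for expression and streptavidin fluorescence for binding of the Sf9 membrane reagent. Each polyreactivity label is drawn from the gate of origin.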
As for “QVQLVESGGGLVQAGGSLRLSCAASGSIYGFYAKGWYRQAPAKESELVAAIDSGDSSNYADSVKGRFTISRDNAKNTVYLQMKSLIPEDTAVYYWNAEAWWYFCFDYWGQGTQVTVSS”, the “polyreactivity (PSR sort gate)” value is “low polyreactivity”.
Consider “QVQLVESGGGLVQAGGSLRLSCAASGSIYGRYVMGWYRQSPGKERELVATISSGGSTYYADSVKGRFTISRDNAKNTVYLQMNSLKPEDTAVYYCAASYSRFVDWIGDPGYDYWGQGTQVTVSS”, for which the “polyreactivity (PSR sort gate)” value is on record as “low polyreactivity”.
Take “QVQLVESGGGLVQAGGSLRLSCAASGSIYGYYVMGWNRQAPGKERELVAAISRSGGSTYYADSVKGRFTISRDNAKNTFYLQMNSLKPEDTGVYYCAASFAVRYPRLDYWGQGTQVTVSS”: the “polyreactivity (PSR sort gate)” value is reported as “high polyreactivity”.
The result for “QVQLVESGGGLVQAGGSLRLSCAASGSIYLYNAMGWYRQAPGKERELVAVINGRGGTYYADSVKGRFTISRDNAKNNVYLQMNSLKPEDTAVYYCATGYAPSAWYDSVRFEDRDSWGQGTQVTVSS” reads “low polyreactivity”; that for “QVQLVESGGGLVQAGGSLRLSCAASGSIYRNNAMGWYRQAPGKERELVAVISRRAGNTYYAVSVKGRFTISRDNAKNTVYLQMNSLKPEDTAVYYCAADYSKSSIRGDYWGQGTQVTVSS”, “low polyreactivity”.
The result for “QVQLVESGGGLVQAGGSLRLSCAASGSIYRYAMGWYRQAPGKERELVASISRRGGSTYYADSVKGRFTISRDNAKNTVYLQMNSLKPEDTAVYSCNAYGYSFGYDYWGQGTQVTVSS” reads “high polyreactivity”.
On to “QVQLVESGGGLVQAGGSLRLSCAASGSIYSYTMGWYRQAPGKEKELVAAITYSGDSTYYADSVKGRFTISRDNAKNTVYLQMNSLKPDDTAVYYCAKSGTLSEYDYWGQGTQVTVSS”, for which the “polyreactivity (PSR sort gate)” value is “low polyreactivity”.
The result for “QVQLVESGGGLVQAGGSLRLSCAASGSIYSYTMGWYRQAPGKEREFVAAITYSGDSTYYADSVKGRFTISRDNEKNTVYLQMNSLTPEDTAVYDCAAAGGRGSYYRLDYWGQGTQVTVSS” reads “low polyreactivity”.
Then “QVQLVESGGGLVQAGGSLRLSCAASGSIYTPNVMGWYRQAPGKERELVAAISQSGGSTFYADSVKGRFTISRDNAKNTVYLQMNSLKPEDTAVYYCATEYYGPVYDLDYDYWGQGTQVTVSS”, with “low polyreactivity”; and “QVQLVESGGGLVQAGGSLRLSCAASGSIYYGYAMGWYRQAPGKERELVAAISSSGGSTYYADSVKGRFTISRDNAKNTVYLQMNSLKPEDTAVYYCAATRRKAYLYPSDYWGQGTQVTVSS”, with “high polyreactivity”.
Turning to “QVQLVESGGGLVQAGGSLRLSCAASGSIYYHNAMGWYRQAPGKERELVAAITGSGGSTYYADSVKGRFTISRDNAKNTVYLQMNSLKPEDTAVYYCAADGYTKWWISWGYDYWGQGTQVTVSS”, the “polyreactivity (PSR sort gate)” value is given as “low polyreactivity”.
Then “QVQLVESGGGLVQAGGSLRLSCAASGSIYYNAMGWYRQAPGKERELVASISTGDSTDYADSVKGRFTISRDNAKNTVYLQMNSLKPEDTAVYYCAAVTRLGYWDDYWGQGTQVTVSS”, with “low polyreactivity”.
Regarding “QVQLVESGGGLVQAGGSLRLSCAASGSIYYYAMGWYRQAPGKERELVAVITSRGGSTNYADSVKGRFTISRDNAKNTVYLQMNSLKPQDTAVYYCNADYYRYYSITYGGDYWGQGTQVTVSS”, the “polyreactivity (PSR sort gate)” value was “high polyreactivity”.
Turning to “QVQLVESGGGLVQAGGSLRLSCAASGSLFDHYAMGWYRQEPGTERELVARISWSGGSTYYADSVKGRFTISRDNAKNTVYLQMNRLKPEDTAVYYCARAGRSWDTLYKYYLEHDYWGQGTQVTVSS”, the “polyreactivity (PSR sort gate)” value is “low polyreactivity”.
In the case of “QVQLVESGGGLVQAGGSLRLSCAASGSLYFAYAMGWYRQAPGKEREFVAAISASGGSTSYADSVKGRFTISRDNAKNTVYLQMNSLKPEDTAVYYCATEHRVTTYDYWGQGTQVTVSS”, the “polyreactivity (PSR sort gate)” value was “low polyreactivity”.
As to “QVQLVESGGGLVQAGGSLRLSCAASGSMFEGYAMGRYLQAPGKVRELVAAMTWSSGSTYYADSVKGRFTISRDNAKNTVYLQMNSLKPEETAVYSCAVDGGDFSSYGYWGQGTQVTVSS”, the “polyreactivity (PSR sort gate)” value is given as “low polyreactivity”.
As for “QVQLVESGGGLVQAGGSLRLSCAASGSMFKNNAMGWYRQAPGKARELVAAISRSGGSTYYADSVKGRFTISRDNAKNTVYLPMNSLKPEDTAVYYCARDVDTHYPYAYDYWGQGTQVTVSS”, the “polyreactivity (PSR sort gate)” value is given as “high polyreactivity”.
As to “QVQLVESGGGLVQAGGSLRLSCAASGSNFAINAMGWYRQAPGKERELVAAITRTASTYADSVKGRFTISRDNAKNTVYLQMNSLKPEDTAVYYCNADFAYRYYYWGQGTQVTVSS”, the “polyreactivity (PSR sort gate)” value is reported as “low polyreactivity”.
The result for “QVQLVESGGGLVQAGGSLRLSCAASGSNFARYAMGWYRQAPGKERELVAAINSTVSTNYADSVNGRFTISRDNPKNTVYLQMNSLKPEDTAVYYCAVDIVRGGRDSWGQGTQVTVSS” reads “low polyreactivity”; that for “QVQLVESGGGLVQAGGSLRLSCAASGSNFDDNAMGWYRQAPGKERELVAAINSTDITNYADSVKGRFTISRDNAKNTVYLQMTSLKPEDTAVYYCNVDDWGQGTQVTVSS”, “low polyreactivity”.
Then “QVQLVESGGGLVQAGGSLRLSCAASGSNFDDYGMGWYRQAPGKEREFVATITFGGGTYADSVKGRFTISRDNAKNTVYLQMTSLKPEDTAVYYCAKDWWTYRSSRPSDGTPARDDYWGQGTQVTVSS”, with “low polyreactivity”; and “QVQLVESGGGLVQAGGSLRLSCAASGSNFDYYAMGWYRQAPGKERELVAAIRVSGGSTYYADSVKGRFTISRDNAKNTVYLQMNSLKPEDTAVCYCASSYYDFNYEYYYWGQGTQVTVSS”, with “high polyreactivity”.
Regarding “QVQLVESGGGLVQAGGSLRLSCAASGSNFGANAMGWYRQAPGKEREFVAAISGSGTTTYYADSVKGRFTISRDNAKNTVYLQMNSLKPEDTAVYYCAKTRKAHWLGYWGQGTQVTVSS”, the “polyreactivity (PSR sort gate)” value is recorded as “low polyreactivity”.
As for “QVQLVESGGGLVQAGGSLRLSCAASGSNFGWYTMGWYRQAPGKERELVAAITSRGTRTSYADSVKGRFTISRDYAKNTVYLQMNSLKPEDTAVYYCAARVFRGLGEYYWGQGTQVTVSS”, the “polyreactivity (PSR sort gate)” value is recorded as “high polyreactivity”.
Then “QVQLVESGGGLVQAGGSLRLSCAASGSNFHLYAMGWYRQAPGKERELVADIDLSGGSTYYADSVKGRFTISRDNAKNTVYLQMNSLKPEDTAVYYCGADHVSSLGFDYWGQGTEVTVSS”, with “low polyreactivity”; and “QVQLVESGGGLVQAGGSLRLSCAASGSNFNPYDLGWYRQAPGKERELVAAIDWSGGSTYYADSVKGRFTISRDNAKNTVYLQMNSLKPEDTAVYYCNAESYQDTLFGADNDYDYWGQGTLVTVSS”, with “low polyreactivity”; and “QVQLVESGGGLVQAGGSLRLSCAASGSNFPWNAKGWYRQAPGKERELVAGINESGGSTYYADSVKGRFTISRDYAKNTVYLQMNSLKPEDTAVYYCAADGYPSVGDDYWGQGTQVTVSS”, with “low polyreactivity”.
The result for “QVQLVESGGGLVQAGGSLRLSCAASGSNFRTYPIGWYRQAPGKERELVAAISSNGGSTYYADSVKGRFTISRDNAKNTVYLQMNSLKPEDTAVYYCANDQTGYWYNRYGYWGQGTQVTVSS” reads “low polyreactivity”.
The result for “QVQLVESGGGLVQAGGSLRLSCAASGSNFRYNAIGWYRQAPGKERELVAAISWSGGSTYYADSVKGRFTISRDNAKNTVYLQMNSLKPEDTAVYYCATRYYGIVPGRRYGYWGQGTQVTVSS” reads “low polyreactivity”; that for “QVQLVESGGGLVQAGGSLRLSCAASGSNFSDNAMGWYRQAPRKERELVAAITSGGSTYYADSVKGRFTISRDKAKNTVYLQMNSLKPEDSAVYYCAADYWGQGTQVTVSS”, “low polyreactivity”.
